Test results as given in patent US11427805B2, “Methods of producing human foregut endoderm cells expressing PDX1 from human definitive endoderm” (ViaCyte, Inc., priority 2005, dated 2022).

Legend:
Type in all cases: cell-based, human
[1] = system: definitive endoderm; experiment: Dorsal / ventral / PDX1-negative foregut endoderm differentiation from definitive endoderm (marker gene expression); conditions: for specification of definitive endoderm into foregut endoderm: FGF10 5-500 ng/ml, KAAD-cyclopamine 0.1-2 μM
Protocol: Definitive endoderm was produced from undifferentiated hESCs using a three or five day protocol in which activin A was provided to the culture medium at a concentration of 100 ng/ml each day. For both dorsal and ventral differentiation, the medium composition for the first five days was as follows: Day 1—RPMI+0% fetal bovine serum (FBS), Day 2—RPMI+0.2% PBS, Day 3—RPMI+2.0% FBS, Day 4—RPMI+2.0% FBS and Day 5—RPMI+2.0% FBS. For the ventral differentiation, definitive endoderm was produced for 3 days in activin A at 100 ng/ml and then exposed to BMP4 at 3 ng/ml and FGF10 at 50 ng/ml. […] For the dorsal differentiation procedure, definitive endoderm was produced for 5 days in activin A at 100 ng/ml and then exposed to retinoic acid (RA) at 2 μM and activin A at 25 ng/ml in CMRL medium containing B27 supplement (1:200).
Four separate conditions were used to treat hESCs that result in varying proportions of differentiation to definitive endoderm. All four conditions utilized RPMI supplemented with 0% FBS on the first day, 0.2% FBS on second day, and 2% FBS on days 3 and 4. The four conditions were as follows: (a) BMP4 at 100 ng/mL with SU5402 at 5 μM; (b) no exogenous growth factors; (c) activin A at 15 ng/mL; and (d) activin A at 100 ng/ml. […] All cultures were then incubated for 2 days with BMP4 at 3 ng/mL, FGF10 at 50 ng/ml and KAAD-cyclopamine at 0.5 μM in a base medium of 2% FBS in RPMI followed by 6 days with BMP4 at 3 ng/mL, FGF10 at 50 ng/ml and KAAD-cyclopamine at 0.5 μM in a base medium composed of CMRL with 1:200 dilution of B27 extract.
Definitive endoderm was produced by exposing undifferentiated hESCs to activin at 100 ng/mL in RPMI base medium supplemented with 0%, 0.2%, and 2% FBS on days 1 through 3, respectively. After 3 days of activin A treatment, the cultures were switched to a base medium composed of RPMI containing 2% FBS and maintained under one of the following conditions: (a) BMP4 at 3 ng/ml with FGF10 at 50 ng/ml and KAAD-cyclopamine at 0.5 μM; (b) FGF10 at 50 ng/ml and KAAD-cyclopamine at 0.5 μM; or (c-e) no exogenous factors. After two days, the base medium was changed to CMRL plus B27 supplement (1:200) and cells were maintained according to conditions (a-c) above. Alternatively, cells were maintained with no exogenous factors in RPMI with B27 supplement (1:200) (condition (d)) or RPMI with 2% FBS (condition (e)). The same factor treatment conditions were maintained for 8 more days of differentiation.
Human embryonic stem cells were differentiated for 7 days via a 2-step protocol to achieve PDX1 cells. The first step comprised 5 days differentiation in activin A (100 ng/ml) to robustly produce DE (D'Amour, K., et al., Nature Biotechnology 23, 1534-1541, (2005)). […]

[2] = system: PDX1 gene expression; experiment: Q-PCR of PDX1 gene expression in hESC-derived definitive endoderm cultures; conditions: for PDX1 induction over RA alone: added to 1 μM RA on day four, ninety six hours (FIG. 37A)
Protocol: (§1) Human embryonic stem cells were cultured with or without activins for four days. On day four, 1 μM RA and 50 ng/ml FGF-10 were added to the cell culture. Forty-eight hours after the RA/FGF-10 addition, the expression of the PDX1 marker gene and other marker genes not specific to foregut endoderm were quantitated by Q-PCR.
(§2) As in the previous Example, hESCs were cultured with or without activins for four days. On day four, the cells were treated with one of the following: 1 μM RA alone; 1 μM RA in combination with either FGF-4 or FGF-10; or 1 μM RA in combination with both FGF-4 and FGF-10. The expression of PDX1, SOX7 and NFM were quantitated by Q-PCR ninety six hours after RA or RA/FGF.
Human embryonic stem cells were cultured with or without activins for four days. On day four, FGF-10 at 50 ng/ml was added to the culture in combination with RA at 0.04 μM, 0.2 μM or 1.0 μM. The expression of the PDX1 marker gene as well as other markers not specific for foregut endoderm were quantitated by Q-PCR.
Human embryonic stem cells were induced to differentiate to definitive endoderm by treatment of undifferentiated hES cells grown on mouse embryonic fibroblast feeders with high dose activin A (100-200 ng/ml in 0.5-2% FBS/DMEM/F12) for 4 days. The no activin A control received 0.5-2% FBS/DMEM/F12 with no added activin A. At four days, cultures received either no activin A in 2% FBS (none), and in 2% serum replacement (SR), or 50 ng/ml activin A together with 2 μM RA and 50 ng/ml FGF-10 in 2% FBS/DMEM/F12 (none, +FBS, +B27) and similarly in 2% Serum replacement (SR). B27 supplement, (Gibco/BRL), was added as a 1/50 dilution directly into 2% FBS/DMEM/F12 (+B27). Duplicate cell samples where taken for each point, and total RNA was isolated and subjected to Q-PCR as previously described.
Human embryonic stem cells were induced to differentiate to definitive endoderm by treatment of undifferentiated hESCs grown on mouse embryonic fibroblast feeders with high dose activin A (50 ng/ml) in low serum/RPMI for 6 days. The FBS dose was 0% on day one, 0.2% on day two and 2% on days 3-6. The negative control for definitive endoderm production (NF) received 2% FBS/RPMI with no added activin A. In order to induce PDX1 expression, each of the cultures received retinoic acid at 2 μM in 2% FBS/RPMI on day 6. The cultures treated with activin A on days one through five were provided with different dosing combinations of activin A and activin B or remained in activin A alone at 50 ng/ml. The no activin A control culture (NF) was provided neither activin A nor activin B. This RA/activin treatment was carried out for 3 days at which time PDX1 gene expression was measured by Q-PCR from duplicate cell samples.
The definitive endoderm cultures generated by 5 days of activin A treatment were then induced to differentiate to PDX1 expressing endoderm by the addition of RA in 2% FBS/RPMI containing activin A at 25 ng/ml for four days. The RA was 2 μM for the first two days of addition, 1 μM on the third day and 0.5 μM on the fourth day. This base medium for PDX1 induction was provided fresh (2A25R) or after conditioning for 24 hours by one of four different cell populations. Conditioned media (CM) were generated from either mouse embryonic fibroblasts (MEFCM) or from hESCs that were first differentiated for 5 days by one of three conditions; i) 3% FBS/RPMI (CM2), or ii) activin A (CM3) or iii) bone morphogenic protein 4 (BMP4) (CM4). […]

[3] = system: definitive endoderm cells; experiment: Maintenance and expansion of definitive endoderm cells in culture; conditions: in the presence of activin
Excerpt: Definitive endoderm cells produced by methods described herein have been maintained and expanded in culture in the presence of activin for greater than 50 days without appreciable differentiation. In such cases, SOX17, CXCR4, MIXL1, GATA4, HNF3β expression is maintained over the culture period. Additionally, TM, SPARC, OCT4, AFP, SOX7, ZIC1 and BRACH were not detected in these cultures. It is likely that such cells can be maintained and expanded in culture for substantially longer than 50 days without appreciable differentiation.

[4] = system: SOX17 gene expression; experiment: Q-PCR of SOX17 gene expression in differentiating hESCs; conditions: added to activin A and activin B treated cultures (FIG. 23)
Protocol: In the following experiments, real-time quantitative RT-PCR (Q-PCR) was the primary assay used for screening the effects of various treatments on hESC differentiation. In particular, real-time measurements of gene expression were analyzed for multiple marker genes at multiple time points by Q-PCR. Marker genes characteristic of the desired as well as undesired cell types were evaluated to gain a better understanding of the overall dynamics of the cellular populations. The strength of Q-PCR analysis includes its extreme sensitivity and relative ease of developing the necessary markers, as the genome sequence is readily available. Furthermore, the extremely high sensitivity of Q-PCR permits detection of gene expression from a relatively small number of cells within a much larger population. In addition, the ability to detect very low levels of gene expression provides indications for “differentiation bias” within the population. The bias towards a particular differentiation pathway, prior to the overt differentiation of those cellular phenotypes, is unrecognizable using immunocytochemical techniques. […] Additionally, Q-PCR provides a mechanism by which to evaluate the success of a differentiation protocol in a quantitative format at semi-high throughput scales of analysis.
The approach taken here was to perform relative quantitation using SYBR Green chemistry on a Rotor Gene 3000 instrument (Corbett Research) and a two-step RT-PCR format. Such an approach allowed for the banking of cDNA samples for analysis of additional marker genes in the future, thus avoiding variability in the reverse transcription efficiency between samples.
To generate PCR template, total RNA was isolated using RNeasy (Qiagen) and quantitated using RiboGreen (Molecular Probes). Reverse transcription from 350-500 ng of total RNA was carried out using the iScript reverse transcriptase kit (BioRad), which contains a mix of oligo-dT and random primers. Each 20 μL reaction was subsequently diluted up to 100 μL total volume and 3 μL was used in each 10 μL Q-PCR reaction containing 400 nM forward and reverse primers and 5 μL 2×SYBR Green master mix (Qiagen). Two step cycling parameters were used employing a 5 second denature at 85-94° C. (specifically selected according to the melting temp of the amplicon for each primer set) followed by a 45 second anneal/extend at 60° C. Fluorescence data was collected during the last 15 seconds of each extension phase. A three point, 10-fold dilution series was used to generate the standard curve for each run and cycle thresholds (Ct's) were converted to quantitative values based on this standard curve. The quantitated values for each sample were normalized to housekeeping gene performance and then average and standard deviations were calculated for triplicate samples. At the conclusion of PCR cycling, a melt curve analysis was performed to ascertain the specificity of the reaction. A single specific product was indicated by a single peak at the Tm appropriate for that PCR amplicon.
A first step in establishing the Q-PCR methodology was validation of appropriate housekeeping genes (HGs) in the experimental system. […] We measured the expression levels of Cyclophilin G, hypoxanthine phosphoribosyltransferase 1 (HPRT), beta-2-microglobulin, hydroxymethylbiane synthase (HMBS), TATA-binding protein (TBP), and glucoronidase beta (GUS) in differentiating hESCs. […] We routinely used both Cyclophilin G and GUS to calculate a normalization factor for all samples. The use of multiple HGs simultaneously reduces the variability inherent to the normalization process and increases the reliability of the relative gene expression values.
We were the first to analyze and describe the effect of TGFβ family growth factors, such as Nodal/activin/BMP, for use in creating definitive endoderm cells from embryonic stem cells in in vitro cell cultures. […]

[5] = system: definitive endoderm cells; experiment: Q-PCR of marker genes other than PDX1 in hESC-derived definitive endoderm cultures; conditions: FIG. 40B
Protocol: as §1, §2
Human embryonic stem cells were cultured with or without activins for four days. […] The expression of the PDX1 marker gene as well as other markers not specific for foregut endoderm were quantitated by Q-PCR.
Human embryonic stem cells were induced to differentiate to definitive endoderm by treatment of undifferentiated hESCs grown on mouse embryonic fibroblast feeders with high dose activin A (50 ng/ml) in low serum/RPMI for 6 days. […] The no activin A control culture (NF) was provided neither activin A nor activin B. This RA/activin treatment was carried out for 3 days at which time PDX1 gene expression was measured by Q-PCR from duplicate cell samples. […]

CC1=C2C[C@H]3[C@@H](CC=C4CC(=O)CC[C@@]43C)[C@@H]2CC[C@]12O[C@@H]1C[C@H](C)CN(CCNC(=O)CCCCCNC(=O)CCc3ccccc3)[C@H]1[C@H]2C [KAAD-cyclopamine, reference compound]
specification of definitive endoderm into foregut endoderm [1]: further specified definitive endoderm cells into the foregut endoderm domain

CC1=C(/C=C/C(C)=C/C=C/C(C)=C/C(=O)O)C(C)(C)CCC1 [retinoic acid, reference compound]
increase in PDX1 gene expression ([2]; activin for four days followed by 1 μM RA, ninety six hours): 60 fold

activin
time definitive endoderm cells were maintained and expanded in culture without appreciable differentiation [3]: greater than 50 days
PDX1 expression in activin treated cell cultures relative to cultures that received no activin prior to RA application ([2]; four days with or without activins, then 1 μM RA and 50 ng/ml FGF-10 for 48 hours): 160 fold

B1: FGF-4 (protein, UniProt P08620 31-206, looked up)
Fibroblast growth factor 4: APTAPNGTLEAELERRWESLVALSLARLPVAAQPKEAAVQSGAGDYLLGIKRLRRLYCNVGIGFHLQALPDGRIGGAHADTRDSLLELSPVERGVVSIFGVASRFFVAMSSKGKLYGSPFFTDECTFKEILLPNNYNAYESYKYPGMFIALSKNGKTKKGNRVSPTMKVTHFLPRL
notes: fibroblast growth factor
PDX1 induction over RA alone [2]: approximately 3 fold

B2: BMP4 (protein, UniProt P12644 293-408, looked up)
Bone morphogenetic protein 4: SPKHHSQRARKKNKNCRRHSLYVDFSDVGWNDWIVAPPGYQAFYCHGDCPFPLADHLNSTNHAIVQTLVNSVNSSIPKACCVPTELSAISMLYLDEYDKVVLKNYQEMVVEGCGCR
notes: bone morphogenic protein 4, member of the TGFβ family
production of PDX1-positive ventral foregut endoderm ([1]; after 3 days activin 100 ng/mL, FGF10 50 ng/ml, KAAD-cyclopamine 0.5 μM, BMP4 3 ng/ml (FIGS. 52A, 52B)): not needed

B3: FGF-10 (protein, UniProt O15520 38-208, looked up)
Fibroblast growth factor 10: QALGQDMVSPEATNSSSSSFSSPSSAGRHVRSYNHLQGDVRWRKLFSFTKYFLKIEKNGKVSGTKKENCPYSILEITSVEIGVVAVKAINSNYYLAMNKKGKLYGSKEFNNDCKLKERIEENGYNTYASFNWQHNGRQMYVALNGKGAPRRGQKTRRKNTSAHFLPMVVHS
notes: fibroblast growth factor
specification of definitive endoderm into foregut endoderm [1]: beneficial
PDX1 induction over RA alone [2]: 60 fold

B4: Wnt3a (protein, UniProt P56704 19-352, looked up)
Protein Wnt-3a: SYPIWWSLAVGPQYSSLGSQPILCASIPGLVPKQLRFCRNYVEIMPSVAEGIKIGIQECQHQFRGRRWNCTTVHDSLAIFGPVLDKATRESAFVHAIASAGVAFAVTRSCAEGTAAICGCSSRHQGSPGKGWKWGGCSEDIEFGGMVSREFADARENRPDARSAMNRHNNEAGRQAIASHMHLKCKCHGLSGSCEVKTCWWSQPDFRAIGDFLKDKYDSASEMVVEKHRESRGWVETLRPRYTYFKVPTERDLVYYEASPNFCEPNPETGSFGTRDRTCNVSSHGIDGCDLLCCGRGHNARAERRREKCRCVFHWCCYVSCQECTRVYDVHTCK
notes: Wnt family growth factor
SOX17 expression relative to activin A and activin B alone [4]: increases SOX17 expression

B5: activin B (protein, UniProt P09529 293-407, looked up)
Inhibin beta B chain: GLECDGRTNLCCRQQFFIDFRLIGWNDWIIAPTGYYGNYCEGSCPAYLAGVPGSASSFHTAVVNQYRMRGLNPGTVNSCCIPTKLSTMSMLYFDDEYNIVKRDVPNMIVEECGCA
modifications: Inhibin beta B chain
increase in PDX1 expression over the culture that received only activin A at 50 ng/ml ([2]; activin B 10-50 ng/ml with 25 or 50 ng/ml activin A and 2 μM RA, 3 days (FIG. 40A)): at least 2 fold
HNF6 expression [5]: without increase in HNF6 expression
